T1: KdpE (Mycobacterium smegmatis) (UniProt A0R399)
T1 sequence: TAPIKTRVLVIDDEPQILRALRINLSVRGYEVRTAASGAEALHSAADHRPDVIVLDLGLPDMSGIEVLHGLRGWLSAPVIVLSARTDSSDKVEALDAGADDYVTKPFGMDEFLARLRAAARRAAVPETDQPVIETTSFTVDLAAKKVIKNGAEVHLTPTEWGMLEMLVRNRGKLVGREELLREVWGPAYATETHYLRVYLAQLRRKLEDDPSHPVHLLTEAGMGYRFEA

T2: KdpE (Mycobacterium smegmatis, UniProt A0R399 2-230)
T2 sequence: T1 sequence

B1: FPC-28 (dsDNA)
DNA 1: CCGTAAAGAAACCATCAAGGCCGCGTTC
DNA 2: GAACGCGGCCTTGATGGTTTCTTTACGG
B2: FPC-22 (dsDNA)
DNA 1: CCGTAAAGAAACCATCAAGGCC
DNA 2: GGCCTTGATGGTTTCTTTACGG
B3: FPC-18 (dsDNA)
DNA 1: AAGAAACCATCAAGGCCG
DNA 2: CGGCCTTGATGGTTTCTT
B4: FPC-33 (dsDNA)
DNA 1: ACCGTAAAGAAACCATCAAGGCCGCGTTCGCGG
DNA 2: CCGCGAACGCGGCCTTGATGGTTTCTTTACGGT

Columns and labels:
[1] = biological target: T1, KdpE (Mycobacterium smegmatis); assay: competition; conditions: 10 mM Tris pH 7.5 (20 C), 100 mM KCl, 1 mM EDTA, 0.1 mM DTT, 5% glycerol, 0.010 mg/mL BSA, 0.5 mM Na2ATP; 25 C, 1 h; 6% native PAGE in 0.25x TBE
[2] = biological target: T1, KdpE (Mycobacterium smegmatis); assay: EMSA; conditions: 10 mM Tris pH 7.5 (20 C), 100 mM KCl, 1 mM EDTA, 0.1 mM DTT, 5% glycerol, 0.010 mg/mL BSA, 0.5 mM Na2ATP; 25 C, 1 h; 6% native PAGE in 0.25x TBE
[3] = biological target: T1, KdpE (Mycobacterium smegmatis); assay: DNase I footprinting; conditions: 10 mM Tris pH 7.5 (20 C), 100 mM KCl, 1 mM EDTA, 0.1 mM DTT, 5% glycerol, 0.010 mg/mL BSA, 0.5 mM Na2ATP; 25 C, 1 h; 6% native PAGE in 0.25x TBE
KdpE = biological target: T2, KdpE; assay: EMSA; 0.5 mM ATP; 10 mM Tris pH 7.5 (20 C), 100 mM KCl, 1 mM EDTA, 0.1 mM DTT, 5% glycerol, 0.010 mg/mL BSA, 0.5 mM Na2ATP; 25 C, 1 h; 6% native PAGE in 0.25x TBE; conditions: protein: recombinant; tags: 6xHis (pET28a); chain copies: 2; blunt

Molecule | binding [1] | binding [2] | binding [3] | binding result (KdpE)
CCCGAGGCGCCGGCGCCCGGCCGAGCAGGTGCGTCGGGTGTCGGCAGGCGCGGCAGCCCGCGGAGCAAGCAGGGACATGAGCTTCGTCGAGTGGGTCACCCCTCGAACATCCATCAACCGAGCCATGACGACGAGTGTCCTGGCGGAGTCTTGGCCGCTGCTGTACAAACCTTGACGCCGCACTGACAGTCCGTCGGGAACCGCCTGTGCGCCGGCTTCGAACAAACGGTGTCAAATACGGCCGCCGCACCGTAAAGAAACCATCAAGGCCGCGTTCGCGGTCCTGAACTGGGCAGATCC (double strand) [PkdpF 300-bp probe] | binds | binds | binds | 
B1 |  |  |  | binds
B2 |  |  |  | binds
B3 |  |  |  | no binding
B4 |  |  |  | binds

From paper PMC5401905, “Regulation of Inducible Potassium Transporter KdpFABC by the KdpD/KdpE Two-Component System in Mycobacterium smegmatis”
